Assay: yeast display, Sf9 membrane polyspecificity reagent, FACS + sequencing; frameworks hold sequencing errors
How it was run: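 In a synthetic yeast display library (Saccharomyces cerevisiae BJ5465), nanobody expression was induced with galactose for 36–48 hours. FACS gates were set low and high (top ~1%) using anti-HA fluorescence for expression and streptavidin fluorescence for binding of the Sf9 membrane reagent. Each polyreactivity label is drawn from the gate of origin.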

Sequence	polyreactivity (PSR sort gate)
QVQLVESGGGLVQAGGSLRLSCAASGRTFGPNAMGWYRQAPGKERELVAGISWRGTSTYYADSVKGRFTISRDNAKNTVYLQMNSLKPEDTAVYYCAKSVYGYGTLYDHWGQGTQVTVSS	high polyreactivity
QVQLVESGGGLVQAGGSLRLSCAASGRTFGPNVMGWYIQAPRKERELVAAITSGGTTYYADSVKGRFTISRDNANNTVYLLMNSLKPEDTAVYYCAKVLRGGRYDYWGQGTQVTVSS	low polyreactivity
QVQLVESGGGLVQAGGSLRLSCAASGRTFGPYAMGWYRQAPGKDSDLVATISWNGGSTYYADSVKGRFTISRDYAKNSVYLQMNSLKPEDTAVYYCAARHWSQSWKYGYWGQGTQVTVSS	high polyreactivity
QVQLVESGGGLVQAGGSLRLSCAASGRTFGPYAMGWYRQAPGKERELVAAISRSGGRTYYADSVKGRFTISRDNAKNTVYLQMNSLKPEDTAVYYCAARYYSEPNAYYYWGQGTQVTVSS	high polyreactivity
QVQLVESGGGLVQAGGSLRLSCAASGRTFGQYAMGWSRQAPGKERELVAAISARGASTYYADSVKGRFTISRDTAKNTVYLQMNSLKPEDTAVYYCNKYGRTSSTPLFYYWGQGTQVTVSS	high polyreactivity
QVQLVESGGGLVQAGGSLRLSCAASGRTFGQYAMGWYRQAPGKERQLVAAISTRGGSTYYADSVKGRFTISRDNAKNTVYLQMNSLKPEDTAVYYCAARPGWFAGYEYWGQGTQVTVSS	low polyreactivity
QVQLVESGGGLVQAGGSLRLSCAASGRTFGRKAMGWYRQAPGKERELVAAIARSGASTYYADSVKGRFTISRDNAKNTVYLQMNSLNPEDTAVYYCAKDVWGSRYAYDYWGQGTQVTVSS	low polyreactivity
QVQLVESGGGLVQAGGSLRLSCAASGRTFGRNAMGWYRQAPGKEREFVAAISRRGDTTYYADSVKGRFTISRDNAKNTVYLQMNSLKPEDTAVYYCNADVIKDRFSWYYYWGQGTQVTVSS	low polyreactivity
QVQLVESGGGLVQAGGSLRLSCAASGRTFGRNAMGWYRQATGKERELVAAISRSGASTYYADSVKGRFTISRDNAKNTVYLQMNSLKPEDTAVYYCAKDVWGSRYAYDYWGQGTQVTVSS	low polyreactivity
QVQLVESGGGLVQAGGSLRLSCAASGRTFGRYAMGWYRQAPGKEREFVAAIRSHGVSTYYADSVKGRFTISRDNAKNTVYLQMNSLKPEDTAVYYCAKPSTSYYQRGDYWGQGTQVTVSS	high polyreactivity
QVQLVESGGGLVQAGGSLRLSCAASGRTFGRYAMGWYRQAPGKERELVAAISWSGGSTNYADSVKGRFTISRDNAKNTVYLQMISLKPEDTAVYYCAAVTTDGVYAFDYWGQGTQVTVSS	low polyreactivity
QVQLVESGGGLVQAGGSLRLSCAASGRTFGRYAMGWYRQAPGKERELVAAISWTGGRTYYADSVKGRFTISRDNAKNTVYLQMNRLKPEDTAVYYCAALYDRNPAASRGYDSWGQGTQVTVSS	high polyreactivity
QVQLVESGGGLVQAGGSLRLSCAASGRTFGRYAMGWYRQAPGKERELVATITSGGSTNYADSVKGRFTISRDNAKNTVYLQMNSLKPEDTAVYYCAAEFSPSRWAYSEGALRYNYWGQGTQVNVSS	low polyreactivity
QVQLVESGGGLVQAGGSLRLSCAASGRTFGSNAMGWYRQAPGKERELVAAITSSADSTYYADSVKGRFTISRDNAKNTVYLQMNSLKPEDTAVYYCATDQGGYYENDYWGQGTQVTVSS	low polyreactivity
QVQLVESGGGLVQAGGSLRLSCAASGRTFGSNAMGWYRQAPGKERQLVAAITRRGGSTYYADSVKGRFTISRDNAKNTVYLQMNSLKPEDTAVYDCATDPVSTRGSDYWGQGTQVTVSS	low polyreactivity
QVQLVESGGGLVQAGGSLRLSCAASGRTFGSYAMGWYRQAPGKERELVAAISKGGGSTYYADSVKGRFTISRDNAKNTVYLQMNSLKPEDTAVYYCAKRRFDYYYYGGQGTQVTVSS	high polyreactivity

Sequence	polyreactivity (PSR sort gate)
QVQLVESGGGLVQAGGSLRLSCAASGRTFGSYAMGWYRQAPGKERELVAAITWSGTGTYYADSVKGRFTISRDNAKNTVYLQMNSLKPEDTAVYYCAVYTIGYLAWYQKFDYWGQGTQVTVSS	high polyreactivity
QVQLVESGGGLVQAGGSLRLSCAASGRTFGSYGMGWYRQAPGKERELVAAISRSVGSTYYADSVKGRFTISRDNAKNSVYLQMNSLKPEDTAVYYCAVLNHRSFRYTSYYYWGQGTLVTVSS	high polyreactivity
QVQLVESGGGLVQAGGSLRLSCAASGRTFGTNAMGWYRHAPGKERELVAANSRRGGSTYYAESVKGRFTISRDNEKNTVYLQMNSLKPEDTAVYYCAKTIGLKHEDEYWGQGTQVTVSS	low polyreactivity
QVQLVESGGGLVQAGGSLRLSCAASGRTFGTNAMGWYRQAPGKERELVAAINQNGGSTYYADSVKGRFTISRDNAKNTVYLQMNSLKPEDTAVYYCAARSLDRYYHNANYYPYYYWGQGTQVTVSS	high polyreactivity
QVQLVESGGGLVQAGGSLRLSCAASGRTFGTNTMGWYRQAPGKVRELVATISSSSGSTYYADSVKGRFTISRDNAKNTVYFQMNSLKPEDTAVYYCAALCRWRYKRYDYWGQGTQVTVSS	high polyreactivity
QVQLVESGGGLVQAGGSLRLSCAASGRTFGTYALGWYRQAPGKERELVASITSGDSTNYADSVKGRFTISRDNAKNTVYLQMNRLKPEDTAVYYCNARGDVIVTPPKFSFNYEYWGQGTQVTVSS	low polyreactivity
QVQLVESGGGLVQAGGSLRLSCAASGRTFGTYAMGWSRQAPGKERELVAAITWRTGNTYYADSVKGRFTISRDNAKNTVYLQMNSLKPEDTAVYYCAKTSSGRKFYWGQGTQVTVSS	high polyreactivity
QVQLVESGGGLVQAGGSLRLSCAASGRTFGTYAMGWYRQAPGKEREFVAAISRNGGSTYYADSVKGRFTISRDNAKNTVYLQMNSLKPEDTAVYYCATGVLWSAYRYRPNLGYDDWGQGTQVTVSS	low polyreactivity
QVQLVESGGGLVQAGGSLRLSCAASGRTFGVNAMGWYRQAPGKERELVAAITKDSGSTNYADSVKGRFTISRDNAKNTVYLQMNSLKPEDTAVYYCAARVWVRGYYWGQGTQVTVSS	low polyreactivity
QVQLVESGGGLVQAGGSLRLSCAASGRTFGVNAMGWYRQAPGKERELVASISNKGSTYYADSVKGRFTISRDNAKNTVYLQMNSLKPEDTAVYYCAADEYWSWDGTRYGVHYYYWGQGTQVTVSS	low polyreactivity
QVQLVESGGGLVQAGGSLRLSCAASGRTFGVYAMGCYRQAPGKERELVAGIRWRGGSTYYADSVKGRFTNSRDNAKNTVYLQMNSLKPEDTAVYYCAADVYLVKYDYWGQGTQVTVSS	low polyreactivity
QVQLVESGGGLVQAGGSLRLSCAASGRTFGVYAMGWYRQAPGKERELVAGIRWRGGSTYYADSVKGRFTISRDNAKNTVYLQMNSLKPEDTAVYYCAADVYLVKYDYWGQCTQVTVSS	low polyreactivity
QVQLVESGGGLVQAGGSLRLSCAASGRTFGVYAMGWYRQAPGKERELVAGIRWRGGSTYYADSVKGRFTISRDNAKNTVYLQMNSLKPEDTAVYYCAADVYLVKYDYWGQGTQVTVSS	low polyreactivity
QVQLVESGGGLVQAGGSLRLSCAASGRTFGVYAMGWYRQAPGKERELVASISRSGGSTYYADSVKGRFTISRDNAKNTVYLQMNSLKPEDTAVYYCAAVYKRGMDYWGQGTQVTVSS	high polyreactivity
QVQLVESGGGLVQAGGSLRLSCAASGRTFGVYAMGWYRQAPGKERELVAVIRVIGGSTNYADSVKGRFTISRDNAKNTVYLQMNSLKPEDTAVYYCAADQYYSSDYDYWGQGTQVTVSS	low polyreactivity
QVQLVESGGGLVQAGGSLRLSCAASGRTFGVYVMGWYIQAPGKERELVAVITISGGSTYYADSVKGRFTISRDNAKNTVYLQMNSLKPEDTAVYYCAARTYYGYDYWGQGTQVTVSS	high polyreactivity

— the nanobody polyreactivity screen of Harvey et al. (2022)
